From patent US7521477B2, “Vitamin C derivatives with peptide, preparation method thereof and composition comprising the same” (Peptron Co., Ltd., priority 2003, dated 2009) come the findings set out here.

Each structure is given as a SMILES string. Peptide text beside a SMILES is read from it. * marks the point of attachment. X1 = O=C(CCC(=O)*)OC[C@H](O)[C@H]1OC(=O)C(O)=C1O

The test system of one data set is rabbits. Kind of data set: Skin irritation test (patch test). In kind it is in vivo. To be noted: 0.5 ml of 1% in 0.01M PBS, 24 hrs patch, read 24 hrs and 72 hrs. How it is done: 0.5 ml of 1% compound II-4 in 0.01M PBS was applied to each hairless area (2.5 cm×2.5 cm) of the back of rabbits for 24 hrs once. Each of the treated sites was covered with a single sheet of gauge (10 cm×10 cm) to prevent loss of the test compound by contact and then an impermeable and unreactive solid film to prevent evaporation of the test compound. Then, the treated site was bound with an elastic bandage while not disturbing behavior of the rabbits, and the bandage was then held in place by a paper tape. 24 hrs and 72 hrs after application of the test compound, skin irritation was investigated.

The subject of a further data set is eyes of rabbits. Nature of the data set: Ocular irritation test. In kind it is in vivo, New Zealand White Rabbit. The conditions noted are these: 0.1 ml of 1% in 0.01M PBS. How it is done:
The compound II-4 was determined whether inducing ocular irritation or evaluated for the degree of ocular irritation. The compound II-4 was applied to the eyes of rabbits (New Zealand White Rabbit, NZW).
0.1 ml of 1% compound II-4 in 0.01M PBS was applied to the eyes of the rabbits. That is, the test compound was applied to one eye (right) of each of nine rabbits in an amount of 0.1 ml/head according to the standard criteria for toxicity test of pharmaceutical and medicinal substances (a publication by Korean Food & Drug Administration, Vol. 1999-61, Dec. 22, 1999). After application of the test compound, the treated eyes of the rabbits were maintained at a state of being closed for about one second to prevent loss of the applied test compound. Then, the degree of damage in the cornea, the iris and the conjunctiva was investigated.

In data set [1] the test system is human normal fibroblasts, B16 melanocytes and HaCaT cells. Nature of the data set: Cytotoxicity, MTT assay. In kind it is cell-based. The conditions noted are these: concentration of 5 mM. For orientation: Formazan colour is commonly taken as a measure of viable cells.
Data set [2] relates to male Hartley guinea pigs. Kind of data set: Photosensitization test (Adjuvant & Strip method). In kind it is in vivo. To be noted: guinea pig, in vivo. Here is the method:
A photosensitization test for the compound II-4 was carried out according to an Adjuvant & Strip method using male Hartley guinea pigs. After four sites to be sensitized were selected at the cervical and dorsal skin of the guinea pigs, an emulsion of WFI and FCA were intradermally injected to each of the selected sites. The sensitized sites were stripped only in a degree of inducing weak erythema, and covered with 0.01 PBS (excipient group), the compound II-4 (test group) and CP (chlorpromazine; positive control group) in a non-occlusive manner. After two hours, long wave-length UV light of about 10 J/cm^2 was irradiated to the test substance-applied sites. 24 hrs, 48 hrs and 72 hrs after UV irradiation, signs of photosensitization were investigated.

Data set [3] concerns male Hartley guinea pigs. The conditions noted are these: guinea pig, in vivo.
Protocol: Two weeks after secondary sensitization, topical challenge was carried out, as follows. […] Skin reading was made after removal of the patches.
Data set [4] deals with male Hartley guinea pigs. Nature of the data set: Phototoxicity test. The conditions noted are these: guinea pig, in vivo. Here is the method:
Each of the test samples was applied to the skin of guinea pigs, and the guinea pigs were exposed to ultraviolet A (UVA) radiation. Then, potency to induce phototoxicity was evaluated. Induction of phototoxicity, which is an abnormal response of the skin to a photo-stimulus such as ultraviolet or visible light, occurs non-immunologically by a chemical. Unlike the allergic response, the degree of phototoxicity can be expected by sufficient intensity of radiation and drugs.
CP and 8-MOP were prepared at a final concentration of 10% in DMSO and then diluted to 1%. Each of guinea pigs was fixed on a fixing plate, and the skin of the guinea pig was covered with 50 μl of each of the test samples. Then, the right area of the skin was not exposed to UV light, and the left area of the skin was exposed to UVA light (320 to 380 nm) of 15 J/cm^2, which was irradiated in a distance of about 10 cm for about 2 hrs. 24 hrs, 48 hr and 72 hrs after UVA irradiation, photosensitization in the treatment group was evaluated in comparison with that in the positive control groups.

Data set [5] is described as follows: Toxicity test upon single oral administration. In kind it is in vivo. To be noted: both sexes, mouse, in vivo, 2000 mg/kg; single oral administration, male and female mice; read-out: Lethal dose. Here is the method:
(§1) The compound II-4 was evaluated for safety upon single oral administration. The compound II-4 was orally administered to five male and five female mice (SamtakoBioKorea Co. Ltd.) in a single dose of 2,000 mg/10 ml/kg. As a control, five male and five female mice were orally administered once with 0.1 M PBS of 10 ml/kg. During 14 days after administration, death, general pathogenic symptoms and change in body weight were not observed.

Another data set concerns mice. Nature of the data set: Toxicity test upon single oral administration. To be noted: single oral dose of 2,000 mg/10 ml/kg, 14 days, male and female mice. In kind it is in vivo. Here is the method:
as §1

As for `C[C@@H](O)[C@H](NC(=O)[C@H](CCCCN)NC(=O)CCC(=O)OC[C@H](O)[C@H]1OC(=O)C(O)=C1O)C(=O)N[C@H](C(=O)N[C@@H](CCCCN)C(=O)N[C@@H](CO)C(=O)O)[C@@H](C)O` [II-4, 6-(succinyl-lysyl-threonyl-threonyl-lysyl-serine(SEQ ID NO:1))ascorbic acid] (X1-KTTKS-OH), the Skin irritation result in the data set with rabbits is recorded as “very safe upon application to the skin”. In addition, the “Index of Acute Ocular Irritation (I.A.O.I)” value in the data set with eyes of rabbits is “zero”. In addition, the “Conjunctiva redness and chemosis” value in the data set with eyes of rabbits (day 1 to day 7) was “no sign of conjunctiva redness and chemosis was observed”. In addition, the Cytotoxicity entry in data set [1] is recorded as “did not showed cytotoxicity”. In the data set with male Hartley guinea pigs [2], the Mean score result is listed as “(0 + 0)/5”, the Photosensitization index came to 0, the “Photosensitizer (conclusion)” value is “not a photosensitizer” and the Stimulation index was determined as 0. For the same compound, in the data set on male Hartley guinea pigs [3], the Sensitization class entry is “I”, the “Sensitization rate (%)” value came to 0%, the “Sensitization score (total hrs)” value worked out at 0 and the “Skin reaction in induced regions” value was “no skin reaction was observed”. Further, in the data set on male Hartley guinea pigs [3], the sensitization class entry was “I” and the skin irritation rate was determined as 0%. Besides, in the data set with male Hartley guinea pigs [4], the Evaluation entry is “Practically non-irritating”, the Mean score is 0, the “Phototoxicity (conclusion)” value is given as “rarely have phototoxicity” and the “Total score/Site No” value was 0 + 0/10. In the data set with male Hartley guinea pigs [4], the “Total score/Site No.” value was 0 + 0/10. In addition, in data set [5], the LD50 at 336 h is above 2000 mg/kg. Besides, the “Death, general pathogenic symptoms and change in body weight” value in the data set with mice is on record as “not observed”.
